We go through nine molecules from patent publication US20260297205 (published 2026).

Positions count from the first letter of the chain named.

Sequences and labels used below:
B1: GH41 (antibody, V domains shown)
VH: EVQLVESGGGLVQPGGSLRLSCAASGFNFSSSSIHWVRQAPGKGLEWVASISPYSGYTSYADSVKGRFTISADTSKNTAYLQMNSLRAEDTAVYYCARGYGGWYWWYTFAFDYWGQGTLVTV
VL: DIQMTQSPSSLSASVGDRVTITCRASQSVSSAVAWYQQKPGKAPKLLIYSASSLYSGVPSRFSGSRSGTDFTLTISSLQPEDFATYYCQQSSSSELLTFGQGTKVEIKR
B2: GH14 (antibody, V domains shown)
VH: EVQLVESGGGLVQPGGSLRLSCAASGFNFYSSSIHWVRQAPGKGLEWVASIYSYYGYTSYADSVKGRFTISADTSKNTAYLQMNSLRAEDTAVYYCARSGGYIGFDYWGQGTLVTV
VL: DIQMTQSPSSLSASVGDRVTITCRASQSVSSAVAWYQQKPGKAPKLLIYSASSLYSGVPSRFSGSRSGTDFTLTISSLQPEDFATYYCQQYWEYPFTFGQGTKVEIKR
B3: GH42 (antibody, V domains shown)
VH: EVQLVESGGGLVQPGGSLRLSCAASGFNFSSSYIHWVRQAPGKGLEWVASISSSSGSTSYADSVKGRFTISADTSKNTAYLQMNSLRAEDTAVYYCARSPWYVYWYFGSALDYWGQGTLVTV
VL: B2 VL with Y91S, W92S, E93S, Y94S, P95L, F96I
B4: GH19 (antibody, V domains shown)
VH: EVQLVESGGGLVQPGGSLRLSCAASGFNFSYSYIHWVRQAPGKGLEWVASIYSYSGYTSYADSVKGRFTISADTSKNTAYLQMNSLRAEDTAVYYCARYKWWAMDYWGQGTLVTV
VL: B2 VL with Y91S, W92G, E93S, Y94W, F96I
B5: GH23 (antibody, V domains shown)
VH: B4 VH with F29V, Y31S, Y99F, K100W, W101V
VL: B2 VL with Y91S, W92S, E93Y, Y94I, F96L
B6: GH18 (antibody, V domains shown)
VH: B2 VH with S33Y, Y55S, S99Y, G100K, G101E, Y102P, I103F, F105M
VL: B2 VL with Y91S, W92N, E93Y, Y94M, F96L
B7: GH25 (antibody, V domains shown)
VH: EVQLVESGGGLVQPGGSLRLSCAASGFNFSYYSIHWVRQAPGKGLEWVASISSYYGYTSYADSVKGRFTISADTSKNTAYLQMNSLRAEDTAVYYCARYFLGMDYWGQGTLVTV
VL: B2 VL with W92R, E93Y, Y94P, F96I
B8: GH10 (antibody, V domains shown)
VH: EVQLVESGGGLVQPGGSLRLSCAASGFNFYSSSIHWVRQAPGKGLEWVAYISPYSGYTSYADSVKGRFTISADTSKNTAYLQMNSLRAEDTAVYYCARIAYKWYMPYYYGMDYWGQGTLVTV
VL: B2 VL with Y91S, W92L, E93S, Y94S, P95L, F96V
B9: GH9 (antibody, V domains shown)
VH: B4 VH with F29V, S30Y, Y31S, Y99H, K100S, W101S
VL: B2 VL with Y91S, W92S, E93F, Y94V, F96L

The assay deals with human growth hormone (GH) (human, UniProt P01241). The experiment in a line: SPR, 20C. In general terms: SPR reads the build-up and loss of mass on a sensor chip optically.
Sequence of human growth hormone (GH) (P01241 27-217): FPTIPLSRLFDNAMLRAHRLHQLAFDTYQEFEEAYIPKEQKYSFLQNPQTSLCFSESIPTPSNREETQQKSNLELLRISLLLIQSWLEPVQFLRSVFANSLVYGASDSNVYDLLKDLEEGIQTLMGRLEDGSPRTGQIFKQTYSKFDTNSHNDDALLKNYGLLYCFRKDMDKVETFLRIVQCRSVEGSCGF
The molecule B1 registered a Kd of 2.6 nM.

B2 came in with a Kd of 0.7 nM.

B3 displayed a Kd of 2.2 nM.

Regarding B4, the affinity, expressed as Kd, was 5.9 nM.

Molecule B5 registered a Kd of 0.17 nM.

Molecule B6 returned a Kd of 12.5 nM.

The molecule B7 gave a Kd of 0.14 nM.

Molecule B8 returned a Kd of 3.6 nM.

With B9, the affinity, expressed as Kd, was 18 nM.

A word on the Kd: it is a measure of binding affinity in units of concentration.
